Reference: patent US20240150495A1
Changes are numbered by the printed parent chain.

T1: synthetic peptide Rp10-L, a mimotope of B-cell molecular marker CD20
T1 sequence (peptide): ITPWPHWLERSS

B1: CH3 clone A21 (mutated human IgG1 CH3 domain, CH3+3 library) (designed binder, not shown: small tags and cut ends)
chain: MAPREPQVYTLPPSRDELVDGQVSLTCLVKGFYPSDIAVEWESNGQPENNYKTTPPVLDSDGSFFLYSKLTVPWGPRDRWWPGNVFSCSVMHEALHNHYTQKSLSLSPGKAAA
B2: CH3 clone D39 (mutated human IgG1 CH3 domain, CH3+3 library) (designed binder, not shown: small tags and cut ends)
chain: B1 chain with V19G, D20W, G21W, P73Q, W74Q, G75K, R77F, D78A, W81T, P82D

Key:
[1] = target: T1, synthetic peptide Rp10-L, a mimotope of B-cell molecular marker CD20; experiment: ELISA, periplasmic lysate on coated Rp10-L, single well; plate A background 0.027
[2] = target: T1, synthetic peptide Rp10-L, a mimotope of B-cell molecular marker CD20; experiment: ELISA, periplasmic extract, Rp10-L 50.0 µg/ml; well without peptide 0.265
[3] = target: T1, synthetic peptide Rp10-L, a mimotope of B-cell molecular marker CD20; experiment: ELISA, periplasmic extract, Rp10-L 6.25 µg/ml; well without peptide 0.265
[4] = target: T1, synthetic peptide Rp10-L, a mimotope of B-cell molecular marker CD20; experiment: ELISA, periplasmic extract, Rp10-L 25.0 µg/ml; well without peptide 0.265
[5] = target: T1, synthetic peptide Rp10-L, a mimotope of B-cell molecular marker CD20; experiment: ELISA, periplasmic extract, Rp10-L 0.81 µg/ml; well without peptide 0.265
[6] = target: T1, synthetic peptide Rp10-L, a mimotope of B-cell molecular marker CD20; experiment: ELISA, periplasmic extract, Rp10-L 3.13 µg/ml; well without peptide 0.265
[7] = target: T1, synthetic peptide Rp10-L, a mimotope of B-cell molecular marker CD20; experiment: ELISA, periplasmic extract, Rp10-L 12.5 µg/ml; well without peptide 0.265
[8] = target: T1, synthetic peptide Rp10-L, a mimotope of B-cell molecular marker CD20; experiment: ELISA, periplasmic extract, Rp10-L 1.63 µg/ml; well without peptide 0.265
[9] = target: T1, synthetic peptide Rp10-L, a mimotope of B-cell molecular marker CD20; experiment: ELISA, periplasmic extract, Rp10-L 3.13 µg/ml; well without peptide 0.469
[10] = target: T1, synthetic peptide Rp10-L, a mimotope of B-cell molecular marker CD20; experiment: ELISA, periplasmic extract, Rp10-L 25.0 µg/ml; well without peptide 0.469
[11] = target: T1, synthetic peptide Rp10-L, a mimotope of B-cell molecular marker CD20; experiment: ELISA, periplasmic lysate on coated Rp10-L, single well; plate D background 0.035
[12] = target: T1, synthetic peptide Rp10-L, a mimotope of B-cell molecular marker CD20; experiment: ELISA, periplasmic extract, Rp10-L 1.63 µg/ml; well without peptide 0.469
[13] = target: T1, synthetic peptide Rp10-L, a mimotope of B-cell molecular marker CD20; experiment: ELISA, periplasmic extract, Rp10-L 50.0 µg/ml; well without peptide 0.469
[14] = target: T1, synthetic peptide Rp10-L, a mimotope of B-cell molecular marker CD20; experiment: ELISA, periplasmic extract, Rp10-L 6.25 µg/ml; well without peptide 0.469
[15] = target: T1, synthetic peptide Rp10-L, a mimotope of B-cell molecular marker CD20; experiment: ELISA, periplasmic extract, Rp10-L 12.5 µg/ml; well without peptide 0.469
[16] = target: T1, synthetic peptide Rp10-L, a mimotope of B-cell molecular marker CD20; experiment: ELISA, periplasmic extract, Rp10-L 0.81 µg/ml; well without peptide 0.469

Row | Binder | A492/620 [1] | ELISA absorbance [2] | ELISA absorbance [3] | ELISA absorbance [4] | ELISA absorbance [5] | ELISA absorbance [6] | ELISA absorbance [7] | ELISA absorbance [8] | ELISA absorbance [9] | ELISA absorbance [10] | A492/620 [11] | ELISA absorbance [12] | ELISA absorbance [13] | ELISA absorbance [14] | ELISA absorbance [15] | ELISA absorbance [16]
1 | B1 | 0.395 A492/620 | 0.398 | 0.343 | 0.335 | 0.362 | 0.352 | 0.315 | 0.383 | – | – | – | – | – | – | – | –
2 | B2 | – | – | – | – | – | – | – | – | 0.719 | 0.868 | 0.448 A492/620 | 0.719 | 0.765 | 0.694 | 0.77 | 0.66
